Laboratory results reported in US20230242876A1 (SHANGHAI SINOBIO BIOTECH, published 2023).

Legend:
Assay in all cases: ELISA, antigen coated at 1 ug/ml, binder titrated from 10 ug/ml, OD450
CD3-OX40L BsM_D = molecular target: T1, CD3-OX40L BsM_D
T1 construct: glycosylated, disulfide-linked dimer; also called anti-CD3/OX40L bispecific molecule of dimeric form

CD3-OX40L BsM_M = molecular target: T2, CD3-OX40L BsM_M
T2 construct: N-glycosylated; also called anti-CD3/OX40L bispecific molecule of monomeric form

CD3-GITRL BsM_M = molecular target: T3, CD3-GITRL BsM_M
T3 construct: glycosylated; also called anti-CD3/GITRL bispecific molecule of monomeric form

CD3-GITRL BsM_D = molecular target: T4, CD3-GITRL BsM_D
T4 construct: glycosylated, disulfide-linked dimer; also called anti-CD3/GITRL bispecific molecule of dimeric form

CD3-CD70 BsM_M = molecular target: T5, CD3-CD70 BsM_M
T5 construct: N-glycosylated; also called anti-CD3/CD70 bispecific molecule of monomeric form

CD3-CD70 BsM_D = molecular target: T6, CD3-CD70 BsM_D
T6 construct: glycosylated, disulfide-linked dimer; also called anti-CD3/CD70 bispecific molecule of dimeric form

CD3-B7RP-1 BsM_D = molecular target: T7, CD3-B7RP-1 BsM_D
T7 construct: glycosylated, disulfide-linked dimer; also called anti-CD3/B7RP-1 bispecific molecule of dimeric form

CD3-B7RP-1 BsM_M = molecular target: T8, CD3-B7RP-1 BsM_M
T8 construct: N-glycosylated on the B7RP-1 part; also called anti-CD3/B7RP-1 bispecific molecule of monomeric form

B1: human OX40-hFc recombinant protein (Fc fusion)
chain: LHCVGDTYPSNDRCCHECRPGNGMVSRCSRSQNTVCRPCGPGFYNDVVSSKPCKPCTWCNLRSGSERKQLCTATQDTVCRCRAGTQPLDSYKPGVDCAPCPPGHFSPGDNQACKPWTNCTLAGKHTLQPASNSSDAICEDRDPPATQPQETQGPPARPITVQPTEAWPRTSQGPSTRPVEVPGGRA
notes: Purchased from Novoprotein; also called OX40-hFc recombinant antigen; not shown: human Fc (hFc) of the purchased fusion
CD3-OX40L BsM_D
  binding result: binds
CD3-OX40L BsM_M
  binding result: binds

B2: human GITR-hFc recombinant protein (Fc fusion)
chain: QRPTGGPGCGPGRLLLGTGTDARCCRVHTTRCCRDYPGEECCSEWDCMCVQPEFHCGDPCCTTCRHHPCPPGQGVQSQGKFSFGFQCIDCASGTFSGGHEGHCKPWTDCTQFGFLTVFPGNKTHNAVCVPGSPPAE
notes: Purchased from Novoprotein; also called GITR-hFc recombinant antigen; not shown: human Fc (hFc) of the purchased fusion
CD3-GITRL BsM_M
  binding result: binds
CD3-GITRL BsM_D
  binding result: binds

B3: human CD27-hFc recombinant protein (Fc fusion)
chain: TPAPKSCPERHYWAQGKLCCQMCEPGTFLVKDCDQHRKAAQCDPCIPGVSFSPDHHTRPHCESCRHCNSGLLVRNCTITANAECACRNGWQCRDKECTECDPLPNPSLTARSSQALSPHPQPTHLPYVSEMLEARTAGHMQTLADFRQLPARTLSTHWPPQRSLCSSDFIR
notes: Purchased from Novoprotein; also called CD27-hFc recombinant antigen; not shown: human Fc (hFc) of the purchased fusion
CD3-CD70 BsM_M
  binding result: binds
CD3-CD70 BsM_D
  binding result: binds

B4: human ICOS-hFc recombinant protein (Fc fusion)
chain: EINGSANYEMFIFHNGGVQILCKYPDIVQQFKMQLLKGGQILCDLTKTKGSGNTVSIKSLKFCHSQLSNNSVSFFLYNLDHSHANYYFCNLSIFDPPPFKVTLTGGYLHIYESQLCCQLK
notes: Purchased from Novoprotein; also called ICOS-hFc recombinant antigen; not shown: human Fc (hFc) of the purchased fusion
CD3-B7RP-1 BsM_D
  binding result: binds
CD3-B7RP-1 BsM_M
  binding result: binds
